In PMC10786891, “Massively parallel profiling of RNA-targeting CRISPR-Cas13d”:
Residue numbers refer to the chain shown, from its start. In names and notes the source's numbering stands.

T1: EsCas13d, nuclease-dead (Eubacterium siraeum, UniProt B0MS50, R295A;H300A;R849A;H854A)
T1 sequence: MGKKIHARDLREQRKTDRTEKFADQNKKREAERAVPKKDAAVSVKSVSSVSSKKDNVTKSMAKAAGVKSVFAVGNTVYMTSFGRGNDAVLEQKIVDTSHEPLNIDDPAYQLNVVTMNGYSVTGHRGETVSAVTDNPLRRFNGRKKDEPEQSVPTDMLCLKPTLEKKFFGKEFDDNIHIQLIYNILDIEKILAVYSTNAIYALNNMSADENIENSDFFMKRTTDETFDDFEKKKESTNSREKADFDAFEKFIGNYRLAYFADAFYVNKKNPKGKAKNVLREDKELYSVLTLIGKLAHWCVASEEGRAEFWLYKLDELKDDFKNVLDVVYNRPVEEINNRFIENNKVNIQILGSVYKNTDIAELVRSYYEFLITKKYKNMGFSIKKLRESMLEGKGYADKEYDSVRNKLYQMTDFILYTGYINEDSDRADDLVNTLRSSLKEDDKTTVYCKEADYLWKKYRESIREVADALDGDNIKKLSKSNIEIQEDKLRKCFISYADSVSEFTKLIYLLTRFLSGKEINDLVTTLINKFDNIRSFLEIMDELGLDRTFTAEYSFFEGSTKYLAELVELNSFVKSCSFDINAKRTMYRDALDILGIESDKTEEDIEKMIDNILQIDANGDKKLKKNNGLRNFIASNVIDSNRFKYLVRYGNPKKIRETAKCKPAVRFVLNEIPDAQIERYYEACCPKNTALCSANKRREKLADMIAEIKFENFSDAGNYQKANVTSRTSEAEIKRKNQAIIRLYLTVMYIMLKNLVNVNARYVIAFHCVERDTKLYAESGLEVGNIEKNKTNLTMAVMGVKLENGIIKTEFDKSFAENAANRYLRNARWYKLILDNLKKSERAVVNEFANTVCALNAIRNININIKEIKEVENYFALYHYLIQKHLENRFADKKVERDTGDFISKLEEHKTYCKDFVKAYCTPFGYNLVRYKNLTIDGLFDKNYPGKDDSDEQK

B1: target 1 C2A,A9C (mixed)
RNA 1: CACCCGUGCAAAAAUGCAGGGGUCUAAAACUGAGCGGAUAACCUCUCUAUGG
RNA 2: GGGAAUGGAUCCACAUCUACGAAUUCGUACCAUAGAGAGGUUCUCCGCUAACCGAGAUCGGAAGAGCACACGU
B2: target 1 insU 3' of 15,insU 3' of 12 (mixed)
RNA 1: B1 RNA 1
RNA 2: GGGAAUGGAUCCACAUCUACGAAUUCGUACCAUAGAGUAGGUUUAUCCGCUCACCGAGAUCGGAAGAGCACACGU
B3: target 1 insU 3' of 15,insU 3' of 9 (mixed)
RNA 1: B1 RNA 1
RNA 2: B2 RNA 2 with U44A, A45U
B4: target 1 insU 3' of 2,insG 3' of 1 (mixed)
RNA 1: B1 RNA 1
RNA 2: GGGAAUGGAUCCACAUCUACGAAUUCGUACCAUAGAGAGGUUAUCCGCUCUAGCCGAGAUCGGAAGAGCACACGU
B5: target 1 C6U,U10A (mixed)
RNA 1: B1 RNA 1
RNA 2: B1 RNA 2 with U42A, C43A, C46U, A50C
B6: target 1 insU 3' of 7,insU 3' of 2 (mixed)
RNA 1: B1 RNA 1
RNA 2: B4 RNA 2 with C46U, G47C, C48G, U49C, C50U, U51C, A52U, G53A
B7: target 1 insU 3' of 12,insC 3' of 3 (mixed)
RNA 1: B1 RNA 1
RNA 2: GGGAAUGGAUCCACAUCUACGAAUUCGUACCAUAGAGAGGUUUAUCCGCUCCACCGAGAUCGGAAGAGCACACGU
B8: target 1 insG 3' of 6 (mixed)
RNA 1: B1 RNA 1
RNA 2: GGGAAUGGAUCCACAUCUACGAAUUCGUACCAUAGAGAGGUUAUCCGGCUCACCGAGAUCGGAAGAGCACACGU
B9: target 1 C2A,C7G (mixed)
RNA 1: B1 RNA 1
RNA 2: B1 RNA 2 with C43A, C45G
B10: target 1 insC 3' of 19,insU 3' of 9 (mixed)
RNA 1: B1 RNA 1
RNA 2: B2 RNA 2 with A34C, G35A, A36G, G37A, U38G, U44A, A45U
B11: target 1 insA 3' of 12,insA 3' of 3 (mixed)
RNA 1: B1 RNA 1
RNA 2: B7 RNA 2 with U41A, C51A
B12: target 1 insC 3' of 22,insA 3' of 12 (mixed)
RNA 1: B1 RNA 1
RNA 2: B2 RNA 2 with A32C, U33A, A34U, G35A, A36G, G37A, U38G, U42A
B13: target 1 G17A,A18C (mixed)
RNA 1: B1 RNA 1
RNA 2: B1 RNA 2 with A34C, G35A, C43A, A50C
B14: target 1 insC 3' of 22,insG 3' of 16 (mixed)
RNA 1: B1 RNA 1
RNA 2: GGGAAUGGAUCCACAUCUACGAAUUCGUACCCAUAGAGGAGGUUAUCCGCUCACCGAGAUCGGAAGAGCACACGU
B15: target 1 insC 3' of 14,insG 3' of 10 (mixed)
RNA 1: B1 RNA 1
RNA 2: B2 RNA 2 with U38A, A39C, U44G

Each binder was assayed against T1, EsCas13d, nuclease-dead (assay: crRNA (strand 1, pre-loaded); Mg2+; 40 mM Tris-HCl pH 7.5, 150 mM NaCl, 6 mM MgCl2, 1 mM DTT, 0.1% Tween-20, 0.2 mg/ml BSA; 25 C; 10 min per concentration, then washed). Conditions: tags: His6-TwinStrep-SUMO cleaved; N-terminal SNAP kept (SNAP-Surface 488); label: 3' end held by stalled T7 RNA polymerase.

Binder | Kd
B1 | 12.2 ± 0.4 nM
B2 | 8.1 ± 0.4 nM
B3 | 59 ± 16 nM
B4 | 12.2 ± 0.6 nM
B5 | 9.8 ± 0.4 nM
B6 | 21.3 ± 1.1 nM
B7 | 8.3 ± 0.6 nM
B8 | 11.4 ± 0.5 nM
B9 | 15.4 ± 0.9 nM
B10 | ~80 nM
B11 | 20.5 ± 1.2 nM
B12 | 42 ± 5 nM
B13 | 67 ± 10 nM
B14 | 75 ± 21 nM
B15 | 43 ± 10 nM
